Measured values from doi:10.1101/2021.01.21.427698 (bioRxiv, 2021).

B1: human SEPT9_i3 with a TEV-cleavable C-terminal Strep-tag-II (natural protein)
chain: MERDRISALKRSFEVEEVETPNSTPPRRVQTPLLRATVASSTQKFQDLGVKNSEPSARHVDSLSQRSPKASLRRVELSGPKAAEPVSRRTELSIDISSKQVENAGAIGPSRFGLKRAEVLGHKTPEPAPRRTEITIVKPQESAHRRMEPPASKVPEVPTAPATDAAPKRVEIQMPKPAEAPTAPSPAQTLENSEPAPVSQLQSRLEPKPQPPVAEATPRSQEATEAAPSCVGDMADTPRDAGLKQAPASRNEKAPVDFGYVGIDSILEQMRRKAMKQGFEFNIMVVGQSGLGKSTLINTLFKSKISRKSVQPTSEERIPKTIEIKSITHDIEEKGVRMKLTVIDTPGFGDHINNENCWQPIMKFINDQYEKYLQEEVNINRKKRIPDTRVHCCLYFIPATGHSLRPLDIEFMKRLSKVVNIVPVIAKADTLTLEERVHFKQRITADLLSNGIDVYPQKEFDEDSEDRLVNEKFREMIPFAVVGSDHEYQVNGKRILGRKTKWGTIEVENTTHCEFAYLRDLLIRTHMQNIKDITSSIHFEAYRVKRLNEGSSAMANGVEEKEPEAPEM
B2: human SEPT9_i1 with a TEV-cleavable C-terminal Strep-tag-II (natural protein)
chain: MKKSYSGGTRTSSGRLRRLGDSSGPALKRSFEVEEVETPNSTPPRRVQTPLLRATVASSTQKFQDLGVKNSEPSARHVDSLSQRSPKASLRRVELSGPKAAEPVSRRTELSIDISSKQVENAGAIGPSRFGLKRAEVLGHKTPEPAPRRTEITIVKPQESAHRRMEPPASKVPEVPTAPATDAAPKRVEIQMPKPAEAPTAPSPAQTLENSEPAPVSQLQSRLEPKPQPPVAEATPRSQEATEAAPSCVGDMADTPRDAGLKQAPASRNEKAPVDFGYVGIDSILEQMRRKAMKQGFEFNIMVVGQSGLGKSTLINTLFKSKISRKSVQPTSEERIPKTIEIKSITHDIEEKGVRMKLTVIDTPGFGDHINNENCWQPIMKFINDQYEKYLQEEVNINRKKRIPDTRVHCCLYFIPATGHSLRPLDIEFMKRLSKVVNIVPVIAKADTLTLEERVHFKQRITADLLSNGIDVYPQKEFDEDSEDRLVNEKFREMIPFAVVGSDHEYQVNGKRILGRKTKWGTIEVENTTHCEFAYLRDLLIRTHMQNIKDITSSIHFEAYRVKRLNEGSSAMANGVEEKEPEAPEM
B3: human SEPT2 with a TEV-cleavable N-terminal His6-tag (natural protein)
chain: MSKQQPTQFINPETPGYVGFANLPNQVHRKSVKKGFEFTLMVVGESGLGKSTLINSLFLTDLYPERVIPGAAEKIERTVQIEASTVEIEERGVKLRLTVVDTPGYGDAINCRDCFKTIISYIDEQFERYLHDESGLNRRHIIDNRVHCCFYFISPFGHGLKPLDVAFMKAIHNKVNIVPVIAKADTLTLKERERLKKRILDEIEEHNIKIYHLPDAESDEDEDFKEQTRLLKASIPFSVVGSNQLIEAKGKKVRGRLYPWGVVEVENPEHNDFLKLRTMLITHMQDLQEVTQDLHYENFRSERLKRGGRKVENEDMNKDQILLEKEAELRRMQEMIARMQAQMQMQMQGGDGDGGALGHHV
B4: SEPT2-msfGFP human septin hexamers (complex)
chain 1: B3 chain
chain 2: MAATDIARQVGEGCRTVPLAGHVGFDSLPDQLVNKSVSQGFCFNILCVGETGLGKSTLMDTLFNTKFEGEPATHTQPGVQLQSNTYDLQESNVRLKLTIVSTVGFGDQINKEDSYKPIVEFIDAQFEAYLQEELKIRRVLHTYHDSRIHVCLYFIAPTGHSLKSLDLVTMKKLDSKVNIIPIIAKADAISKSELTKFKIKITSELVSNGVQIYQFPTDDESVAEINGTMNAHLPFAVIGSTEELKIGNKMMRARQYPWGTVQVENEAHCDFVKLREMLIRVNMEDLREQTHTRHYELYRRCKLEEMGFKDTDPDSKPFSLQETYEAKRNEFLGELQKKEEEMRQMFVQRVKEKEAELKEAEKELHEKFDRLKKLHQDEKKKLEDKKKSLDDEVNAFKQRKTAAELLQSQGSQAGGSQTLKRDKEKKN
chain 3: MSVSARSAAAEERSVNSSTMVAQQKNLEGYVGFANLPNQVYRKSVKRGFEFTLMVVGESGLGKSTLINSLFLTDLYSPEYPGPSHRIKKTVQVEQSKVLIKEGGVQLLLTIVDTPGFGDAVDNSNCWQPVIDYIDSKFEDYLNAESRVNRRQMPDNRVQCCLYFIAPSGHGLKPLDIEFMKRLHEKVNIIPLIAKADTLTPEECQQFKKQIMKEIQEHKIKIYEFPETDDEEENKLVKKIKDRLPLAVVGSNTIIEVNGKRVRGRQYPWGVAEVENGEHCDFTILRNMLIRTHMQDLKDVTNNVHYENYRSRKLAAVTYNGVDNNKNKGQLTKSPLAQMEEERREHVAKMKKMEMEMEQVFEMKVKEKVQKLKDSEAELQRRHEQMKKNLEAQHKELEEKRRQFEDEKANWEAQQRILEQQNSSRTLEKNKKKGKIF
B5: SEPT2-msfGFP human septin octamers containing SEPT9_i1 (complex)
chain 1: B3 chain
chain 2: B4 chain 2
chain 3: B4 chain 3
chain 4: B2 chain
B6: human SEPT6 (natural protein)
chain: B4 chain 2

Tests used:
native gel or EMSA = target: the molecule itself; test: native gel or EMSA
human SEPT6 = target: B6; test: two-tag affinity co-purification of co-expressed proteins
[1] = target: the molecule itself; test: negative-stain electron microscopy of septin polymerisation
[2] = target: the molecule itself; test: spinning disk fluorescence microscopy of septin polymerisation
[3] = target: B3

B1
binding result (native gel or EMSA): binds

B2
binding result (native gel or EMSA): binds

B3
binding result (human SEPT6): binds

B4
binding result [1]: binds
binding result [2]: binds

B5
binding result [1]: binds
binding result [2]: binds

B6
stoichiometry N [3]: 1
